The record followed here is patent US7943337B2, “Method for screening a protease” (Asahi Kasei Pharma Corporation, priority 2003, dated 2011).

What all share (type): biochemical
The nature of assay [1]: Screening of protease for hemoglobin A1c determination (pH 7.5). The conditions noted are these: pH 7.5, 37° C. 60 minutes; 550 nm, reference 595 nm; FOD923 developing solution. How it is done: (§1) A screening method is shown in which a protease that cleaves a glycated peptide from N-terminal-glycated pentapeptide of a hemoglobin β-chain without substantially cleaving a glycated amino acid or glycated peptide from N-terminal-glycated pentapeptide of a hemoglobin α-chain. Each 10 μl of a sample for screening was placed in 3 wells of a 96-well plate, respectively. Then, the first well was supplemented with 50 μl of an α-solution, the second well was supplemented with 50 μl of a β-solution, and the third well was supplemented with 50 μl of a control solution. After the plate was incubated at 37° C. for 60 minutes, 50 μl of distilled water and 50 μl of a developing solution were added, and the whole was left at room temperature for 30 minutes. Then, the absorbance at a measuring wavelength of 550 nm and a reference wavelength of 595 nm were determined using a Microplate Reader (model 550, manufactured by Bio-Rad), to select a sample having a difference in the absorbance between the β-solution-supplemented well and the control solution-supplemented well larger than a difference in the absorbance between the α-solution-supplemented well and the control solution-supplemented well. Thus the protease of object was screened. The samples to be used include: carboxypeptidase B (manufactured by Sigma-Aldrich Corp.); carboxypeptidase W (manufactured by Wako Pure Chemical Industries, Ltd.); carboxypeptidase Y (manufactured by Oriental Yeast Co., Ltd.); protease (type XXVII nagase: manufactured by Sigma-Aldrich Corp.); protease (type VIII Subtilisin Carlsberg: manufactured by Sigma-Aldrich Corp.); protease (type XXIV Bacterial: manufactured by Sigma-Aldrich Corp.); Proteinase K (manufactured by Wako Pure Chemical Industries, Ltd.); neutral proteinase (manufactured by Toyobo Co., Ltd.); carboxypeptidase A (manufactured by Wako Pure Chemical Industries, Ltd.); thermolysin (manufactured by Wako Pure Chemical Industries, Ltd.); and distilled water. To confirm a degree of color development caused by a developing solution, 10 μl of 1 mM FVH (manufactured by Peptide Institute Inc.) and 1 mM FVL (manufactured by Peptide Institute Inc.) were placed in a well severally, followed by adding 50 μl of the control solution. The whole was incubated at 37° C. for 60 minutes. Then, 50 μl of distilled water and 50 μl of the developing solution were added and the whole was left at room temperature for 30 minutes, followed by the determination in a similar manner as described above.
(§2) 0.2 mM α-Glycated pentapeptide (manufactured by Peptide Institute Inc.)
(§3) 0.09% 4-Aminoantipyrine (manufactured by Wako Pure Chemical Industries, Ltd.)
(§4) 0.06% TODB (manufactured by Dojindo Laboratories)
(§5) 15 U/ml Peroxidase (manufactured by Sigma-Aldrich Corp.)
(§6) Various bacteria were cultured with shaking in Difco Lactobacilli MRS Broth (manufactured by Becton, Dickinson and Company), a MM medium (2.5% mannose, 2.5% beer yeast extract, pH7.0), and a YPG medium (2% glucose, 1% polypeptone, 2% yeast extract, 0.1% potassium dihydrogen phosphate, 0.05% magnesium sulfate heptahydrate, pH 7.0) at a temperature of from 28 to 30° C. for 1 to 7 days. Then, cells were removed by centrifugation from the culture solutions to obtain culture supernatants. A sample was prepared by diluting the obtained culture supernatants 10-fold with a 10 mM potassium phosphate buffer (pH7.5), and the determination was performed in a similar manner as Example 1.

Test in assay [2]: as above
The conditions noted are these: pH 7.5, 37° C. 60 minutes; 550 nm, reference 595 nm; FOD923 developing solution. As to the method: as §1
(§7) 0.2 mM β-Glycated pentapeptide (manufactured by Peptide Institute Inc.)
as §3, §4, §5, §6
The source holds these as a separate data set.

Assay [3] can be described thus: Screening of protease (pH 7.5), control solution without substrate. The conditions noted are these: pH 7.5, no substrate; 550 nm, reference 595 nm. As to the method:
as §1, §3, §4, §5, §6

A short description of assay [4]: Screening of protease for hemoglobin A1c determination (pH 3.5). The following applies: pH 3.5, 37° C. 60 minutes; 550 nm, reference 595 nm; FOD923 developing solution. As to the method: (§8) A screening method is shown in which a protease that cleaves a glycated peptide from N-terminal-glycated pentapeptide of a hemoglobin β-chain without substantially cleaving a glycated amino acid or glycated peptide from N-terminal-glycated pentapeptide of a hemoglobin α-chain. Each 10 μl of a sample for screening was placed in 3 wells of a 96-well plate, respectively. Then, the first well was supplemented with 50 μl of an α-solution, the second well was supplemented with 50 μl of a β-solution, and the third well was supplemented with 50 μl of a control solution. After the plate was incubated at 37° C. for 60 minutes, 50 μl of pH-regulating solution and 50 μl of a developing solution were added, and the whole was left at room temperature for 30 minutes. Then, the absorbance at a measuring wavelength of 550 nm and a reference wavelength of 595 nm were determined using a Microplate Reader (model 550, manufactured by Bio-Rad), to select a sample having a difference in the absorbance between the β-solution-supplemented well and the control solution-supplemented well larger than a difference in the absorbance between the α-solution-supplemented well and the control solution-supplemented well. Thus the protease of object was screened. The samples to be used include: carboxypeptidase B (manufactured by Sigma-Aldrich Corp.); carboxypeptidase W (manufactured by Wako Pure Chemical Industries, Ltd.); carboxypeptidase Y (manufactured by Oriental Yeast Co., Ltd.); protease (type XXVII nagase: manufactured by Sigma-Aldrich Corp.); protease (type VIII Subtilisin Carlsberg: manufactured by Sigma-Aldrich Corp.); protease (type XXIV Bacterial: manufactured by Sigma-Aldrich Corp.); Proteinase K (manufactured by Wako Pure Chemical Industries, Ltd.); neutral proteinase (manufactured by Toyobo Co., Ltd.); and distilled water. To confirm a degree of color development caused by a developing solution, 10 μl of 1 mM FVH (manufactured by Peptide Institute Inc.) and 1 mM FVL (manufactured by Peptide Institute Inc.) were placed in a well severally, followed by adding 50 μl of the control solution. The whole was incubated at 37° C. for 60 minutes. Then, 50 μl of a pH-regulating solution and 50 μl of the developing solution were added and the whole was left at room temperature for 30 minutes, followed by the determination in a similar manner as described above.
(§9) 50 mM Acetate-sodium acetate (pH3.5)
as §2
(§10) 0.09% 4-aminoantipyrine (manufactured by Wako Pure Chemical Industries, Ltd.)
as §4, §5

Test in assay [5]: as above
The conditions noted are these: pH 3.5, 37° C. 60 minutes; 550 nm, reference 595 nm; FOD923 developing solution. How it is done:
as §8, §9, §7, §10, §4, §5
The source holds these as a separate data set.

Assay [6] in a line: Screening of protease (pH 3.5), control solution without substrate. The conditions noted are these: pH 3.5, no substrate; 550 nm, reference 595 nm. As to the method:
as §8, §9, §10, §4, §5

B1: protease type XXVII: protease (type XXVII nagase: manufactured by Sigma-Aldrich Corp.) (protein, UniProt P00782 108-382, looked up)
Subtilisin BPN': AQSVPYGVSQIKAPALHSQGYTGSNVKVAVIDSGIDSSHPDLKVAGGASMVPSETNPFQDNNSHGTHVAGTVAALNNSIGVLGVAPSASLYAVKVLGADGSGQYSWIINGIEWAIANNMDVINMSLGGPSGSAALKAAVDKAVASGVVVVAAAGNEGTSGSSSTVGYPGKYPSVIAVGAVDSSNQRASFSSVGPELDVMAPGVSIQSTLPGNKYGAYNGTSMASPHVAGAAALILSKHPNWTNTQVRSSLENTTTKLGDSFYYGKGLINVQAAAQ
For B1, the results for the “α-Solution (absorbance, RAW DATA)” value in assay [1] and in assay [4] were 0.021 and 0.025, respectively. Besides, the “β-Solution (absorbance, RAW DATA)” value in assay [2] amounted to 0.031; in assay [5], 0.021. Further, the “control solution (absorbance, RAW DATA)” value is recorded as 0.016 in assay [3] and 0.019 in assay [6].

B2: carboxypeptidase Y: carboxypeptidase Y (manufactured by Oriental Yeast Co., Ltd.) (protein, UniProt P00729 112-532, looked up)
Carboxypeptidase Y: KIKDPKILGIDPNVTQYTGYLDVEDEDKHFFFWTFESRNDPAKDPVILWLNGGPGCSSLTGLFFELGPSSIGPDLKPIGNPYSWNSNATVIFLDQPVNVGFSYSGSSGVSNTVAAGKDVYNFLELFFDQFPEYVNKGQDFHIAGESYAGHYIPVFASEILSHKDRNFNLTSVLIGNGLTDPLTQYNYYEPMACGEGGEPSVLPSEECSAMEDSLERCLGLIESCYDSQSVWSCVPATIYCNNAQLAPYQRTGRNVYDIRKDCEGGNLCYPTLQDIDDYLNQDYVKEAVGAEVDHYESCNFDINRNFLFAGDWMKPYHTAVTDLLNQDLPILVYAGDKDFICNWLGNKAWTDVLPWKYDEEFASQKVRNWTASITDEVAGEVKSYKHFTYLRVFNGGHMVPFDVPENALSMVNEWIHGGFSL
As to B2, the “α-Solution (absorbance, RAW DATA)” value came to 0.240 in assay [1] and 0.195 in assay [4]. In addition, the “β-Solution (absorbance, RAW DATA)” value in assay [2] is reported as 0.209; in assay [5] it was 0.206. In addition, the entries for the “control solution (absorbance, RAW DATA)” value in assay [3] and in assay [6] were 0.031 and 0.034, respectively.
